Data set [1] concerns the molecule itself. In words: AUC; sedimentation equilibrium, 0.313 mg/mL protein, with 5 mM MgCl2, 20°C, 20 mM Tris, 150 mM NaCl, 1 mM DTT, pH 8.0; global fit of 8000, 12,000, 16,000 and 20,000 rpm; dimer to monomers.
Data set [2] concerns the molecule itself. The data set can be described thus: AUC; sedimentation equilibrium, 0.625 mg/mL protein, with 5 mM MgCl2, 20°C, 20 mM Tris, 150 mM NaCl, 1 mM DTT, pH 8.0; global fit of 8000, 12,000, 16,000 and 20,000 rpm; dimer to monomers.
Data set [3] deals with the molecule itself. In words: AUC; sedimentation equilibrium, 0.625 mg/mL protein, no Mg2+, 20°C, 20 mM Tris, 150 mM NaCl, 1 mM DTT, pH 8.0; global fit of 8000, 12,000, 16,000 and 20,000 rpm; dimer to monomers.
Data set [4] concerns the molecule itself. The data set can be described thus: AUC; sedimentation equilibrium, 1.25 mg/mL protein, no Mg2+, 20°C, 20 mM Tris, 150 mM NaCl, 1 mM DTT, pH 8.0; global fit of 8000, 12,000, 16,000 and 20,000 rpm; dimer to monomers.
Data set [5] deals with the molecule itself. In words: SEC-MALS; Superdex 200 Increase 10/300 GL, 100 uL injected at 2.5 mg/mL, 20 mM Tris pH 8, 150 mM NaCl, 1 mM DTT, ~10°C, buffer nominally free of Mg2+. A general note: SEC sorts molecules by how far they enter the pores of the column.
Data set [6] deals with the molecule itself. The data set can be described thus: AUC; sedimentation equilibrium, 0.313 mg/mL protein, no Mg2+, 20°C, 20 mM Tris, 150 mM NaCl, 1 mM DTT, pH 8.0; global fit of 8000, 12,000, 16,000 and 20,000 rpm; dimer to monomers.
Data set [7] concerns the molecule itself. The data set can be described thus: AUC; sedimentation equilibrium, 1.25 mg/mL protein, with 5 mM MgCl2, 20°C, 20 mM Tris, 150 mM NaCl, 1 mM DTT, pH 8.0; global fit of 8000, 12,000, 16,000 and 20,000 rpm; dimer to monomers.

B1: human MRS2 amino terminal domain, residues 58-333 (MRS2_(58‐333)), wild type (domain or fragment, UniProt Q9HD23-1 58-333, looked up)
chain: DRLRVAGEVHRFRTSDVSQATLASVAPVFTVTKFDKQGNVTSFERKKTELYQELGLQARDLRFQHVMSITVRNNRIIMRMEYLKAVITPECLLILDYRNLNLEQWLFRELPSQLSGEGQLVTYPLPFEFRAIEALLQYWINTLQGKLSILQPLILETLDALVDPKHSSVDRSKLHILLQNGKSLSELETDIKIFKESILEILDEEELLEELCVSKWSDPQVFEKSSAGIDHAEEMELLLENYYRLADDLSNAARELRVLIDDSQSIIFINLDSHRN
notes: Mitochondrial RNA splicing protein 2 (MRS2), human, amino terminal (matrix) domain, residues 58-333 of NCBI NP_065713.1 (pre-protein numbering); theoretical monomer 32.5 kDa including cloning artifacts; Surmise: E. coli, His tag removed by protease; also called MRS2‐NTD; WT; source: recombinantly expressed and purified, as described previously (Uthayabalan et al., 2023)
The term Kd denotes the free concentration of one partner at which half of the binding sites on the other are occupied at equilibrium, for simple one-to-one binding. Broadly, the stoichiometry N is the number of molecules, sites or subunits per partner or assembly. For the protein B1, the Kd in data set [1] is 1760 µM; in data set [2] it was 146 µM; in data set [3] it was 24.3 µM; in data set [4] it was 16.4 µM; in data set [6], 17.4 µM; in data set [7] it was 55.4 µM. Further, the “stoichiometry N” value stood at 1 in data set [1]; 1.1 in data set [2]; 1.6 in data set [3]; 1.7 in data set [4]; 2 in data set [5]; 1.7 in data set [6]. In addition, in data set [7], the “stoichiometry N” value was 1.5.

B2: human MRS2 amino terminal domain, residues 58-333, E261Q mutant (MRS2_(58‐333)‐E261Q) (domain or fragment, UniProt Q9HD23-1 58-333, looked up)
chain: DRLRVAGEVHRFRTSDVSQATLASVAPVFTVTKFDKQGNVTSFERKKTELYQELGLQARDLRFQHVMSITVRNNRIIMRMEYLKAVITPECLLILDYRNLNLEQWLFRELPSQLSGEGQLVTYPLPFEFRAIEALLQYWINTLQGKLSILQPLILETLDALVDPKHSSVDRSKLHILLQNGKSLSELETDIKIFKESILEILDQEELLEELCVSKWSDPQVFEKSSAGIDHAEEMELLLENYYRLADDLSNAARELRVLIDDSQSIIFINLDSHRN
notes: construct details in Uthayabalan et al., 2023; also called MRS2‐NTD‐E261Q; source: recombinantly expressed and purified as described for MRS2_(58‐333) (Uthayabalan et al., 2023)
As for B2, the “stoichiometry N” value in data set [5] was found to be 2.

B3: human MRS2 amino terminal domain, residues 58-333, D216Q mutant (MRS2_(58‐333)‐D216Q) (domain or fragment, UniProt Q9HD23-1 58-333, looked up)
chain: DRLRVAGEVHRFRTSDVSQATLASVAPVFTVTKFDKQGNVTSFERKKTELYQELGLQARDLRFQHVMSITVRNNRIIMRMEYLKAVITPECLLILDYRNLNLEQWLFRELPSQLSGEGQLVTYPLPFEFRAIEALLQYWINTLQGKLSILQPLILETLQALVDPKHSSVDRSKLHILLQNGKSLSELETDIKIFKESILEILDEEELLEELCVSKWSDPQVFEKSSAGIDHAEEMELLLENYYRLADDLSNAARELRVLIDDSQSIIFINLDSHRN
notes: theoretical monomer 32,517 Da; construct details in Uthayabalan et al., 2023; also called MRS2‐NTD‐D216Q; source: recombinantly expressed and purified as described for MRS2_(58‐333) (Uthayabalan et al., 2023)
B3: the Kd was found to be 11.2 µM in data set [1], 22.2 µM in data set [2] and 33.6 µM in data set [7]. Besides, the “stoichiometry N” value in data set [1] came to 2; in data set [2], 1.8; in data set [7], 1.6.

The record behind these values is PMC11237551, “MRS2 missense variation at Asp216 abrogates inhibitory Mg^2+ binding, potentiating cell migration and apoptosis resistance” (Protein Science : A Publication of the Protein Society, 2024).
